In patent publication US5739291A, “Glutamate receptor antibodies” (The Salk Institute For Biological Studies, priority 1995, dated 1998):

Target: T1, homomeric GluR6 receptor (Rattus norvegicus, UniProt P42260, I567V/Q621R/Y571C)
T1 construct: A 4559 base pair cDNA encoding a protein of 884 amino acid residues was engineered from RC11 and RC27; expressed in transfected cells; host or cells: Xenopus oocytes injected with in vitro transcribed GluR6 RNA
Test: Homomeric GluR6 ion channel in Xenopus oocytes injected with in vitro transcribed RNA
Type: cell-based

T1 sequence (P42260 with tags, fused parts or gaps I567V/Y571C/Q621R): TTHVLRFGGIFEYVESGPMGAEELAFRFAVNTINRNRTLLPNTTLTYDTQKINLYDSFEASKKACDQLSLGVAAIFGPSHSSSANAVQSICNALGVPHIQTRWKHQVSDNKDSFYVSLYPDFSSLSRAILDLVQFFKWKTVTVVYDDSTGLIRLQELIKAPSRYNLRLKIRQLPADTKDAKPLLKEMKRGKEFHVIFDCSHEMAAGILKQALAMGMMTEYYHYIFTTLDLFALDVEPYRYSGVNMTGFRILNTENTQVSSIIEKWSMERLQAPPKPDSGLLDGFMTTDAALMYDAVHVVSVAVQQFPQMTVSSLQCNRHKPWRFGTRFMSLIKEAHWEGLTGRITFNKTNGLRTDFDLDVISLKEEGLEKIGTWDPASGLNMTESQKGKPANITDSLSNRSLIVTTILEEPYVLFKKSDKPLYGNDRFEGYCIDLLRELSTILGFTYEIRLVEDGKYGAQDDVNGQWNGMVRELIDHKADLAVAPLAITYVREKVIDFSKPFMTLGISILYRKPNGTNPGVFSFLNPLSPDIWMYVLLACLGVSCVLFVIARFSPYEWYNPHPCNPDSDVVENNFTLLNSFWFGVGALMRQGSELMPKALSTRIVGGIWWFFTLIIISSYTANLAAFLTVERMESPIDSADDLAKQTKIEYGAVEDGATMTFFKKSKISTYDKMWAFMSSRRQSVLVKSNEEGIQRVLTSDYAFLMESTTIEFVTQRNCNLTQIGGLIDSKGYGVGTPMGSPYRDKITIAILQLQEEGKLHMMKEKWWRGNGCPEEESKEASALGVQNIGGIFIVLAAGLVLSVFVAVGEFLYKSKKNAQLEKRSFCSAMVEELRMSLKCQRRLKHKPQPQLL

B1: concanavalin A (protein)
chain: STHETNALHFMFNQFSKDQKDLILQGDATTGTDGNLELTRVSSNGSPQGSSVGRALFYAPVHIWESSAVVASFEATFTFLIKSPDSHPADGIAFFISNIDSSIPSGSTGRLLGLFPDANVIRNSTTIDFNAAYNADTIVAVELDTYPNTDIGDPSYPHIGIDIKSVRSKKTAKWNMQNGKVGTAHIIYNSVDKRLSAVVSYPNADSATVSYDVDLDNVLPEWVRVGLSASTGLYKETNTILSWSFTSKLKSN
notes: concanavalin A, used to decrease receptor desensitization
- effect on desensitization (10 μM for 5 minutes): efficiently decreases desensitization
- increase of current elicited by kainate and glutamate compared to peak current before treatment (equimolar agonist concentrations): 75 to 150 fold
